{"source": "paper PMC4798948", "about": "“Nucleocapsid assembly in pneumoviruses is regulated by conformational switching of the N protein” (eLife, 2016)", "proteins": {"B1": {"name": "HMPV nucleoprotein N, assembled RNA-bound state (N-RNA rings) (natural protein)", "chain": "MSLQGIHLSDLSYKHAILKESQYTIKRDVGTTTAVTPSSLQQEITLLCGEILYAKHADYKYAAEIGIQYISTALGSERVQQILRNSGSEVQVVLTRTYSLGKIKNNKGEDLQMLDIHGVEKSWVEEIDKEARKTMATLLKESSGNIPQNQRPSAPDTPIILLCVGALIFTKLASTIEVGLETTVRRANRVLSDALKRYPRMDIPKIARSFYDLFEQKVYHRSLFIEYGKALGSSSTGSKAESLFVNIFMQAYGAGQTMLRWGVIARSSNNIMLGHVSVQAELKQVTEVYDLVREMGPESGLLHLRQSPKAGLLSLANCPNFASVVLGNASGLGIIGMYRGRVPNTELFSAAESYAKSLKESNKINFSSLGLTDEEKEAAEHFLNVSDDSQNDYE", "notes": "Nucleoprotein N of human metapneumovirus, strain NL1-00 (A1), full-length N gene, 394 residues; each N subunit contacts seven RNA nucleotides; also called subnucleocapsid ring; decameric N-RNA ring; source: Rosetta2 E. coli, purified (Ni-NTA, Superose 6), with RNA from the expression host"}}, "key": {"[1]": {"biological_target": "the molecule itself", "assay": "crystal structure; N-RNA ring (~4 mg/mL), RNA-bound; 100 mM Tris/Bicine pH 8.5, 90 mM NPS, 37.5% MPD/PEG 1000/PEG 3350 (MORPHEUS); 4.2 Å; ten-fold non-crystallographic symmetry"}, "[2]": {"biological_target": "the molecule itself", "assay": "electron cryomicroscopy with 2D classification; purified N-RNA preparation plunge-frozen on holey carbon grids; 2D-class averages with RELION"}}, "note": "“And” between values parts separate entries of the source, which are not always exact repeats. Identical values can stand only once."}
{"protein": "B1", "values": [{"measurement": "stoichiometry N", "setting": "[1]", "value": 10}, {"measurement": "stoichiometry N", "setting": "[2]", "value": "9 and 11"}]}
